Laboratory results from article PMC9482650, “Quantitative fragmentomics allow affinity mapping of interactomes” (Nature Communications, 2022).

Legend:
Assay in all cases: holdup assay
Design in all cases: key: below the threshold = too weak to quantify, mostly under pKd 3.1 to 4
[1] = target: AHNAK1, Q09666
[2] = target: T1, APBA2_1, Q99767
T1 sequence (Q99767 563-664, limits assumed, looked up): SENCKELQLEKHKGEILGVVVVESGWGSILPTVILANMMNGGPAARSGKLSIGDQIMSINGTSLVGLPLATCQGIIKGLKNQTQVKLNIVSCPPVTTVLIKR

[3] = target: T2, DFNB31_3, Q9P202
T2 sequence (Q9P202 811-907, limits assumed, looked up): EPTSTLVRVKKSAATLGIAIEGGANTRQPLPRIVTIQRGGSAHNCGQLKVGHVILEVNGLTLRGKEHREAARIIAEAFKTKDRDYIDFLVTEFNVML

[4] = target: DLG1_2, Q12959
DLG1_2, Q12959, sequence (Q12959 314-412): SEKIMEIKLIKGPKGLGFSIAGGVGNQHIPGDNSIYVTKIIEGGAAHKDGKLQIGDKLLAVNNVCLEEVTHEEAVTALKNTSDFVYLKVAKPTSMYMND

[5] = target: DLG1_3, Q12959
DLG1_3, Q12959, sequence (Q12959 457-571): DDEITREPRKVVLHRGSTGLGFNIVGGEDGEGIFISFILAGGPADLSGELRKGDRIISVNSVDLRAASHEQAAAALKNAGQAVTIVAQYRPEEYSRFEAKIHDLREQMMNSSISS

[6] = target: T3, DLG3_1, Q92796
T3 sequence (Q92796 125-227, limits assumed, looked up): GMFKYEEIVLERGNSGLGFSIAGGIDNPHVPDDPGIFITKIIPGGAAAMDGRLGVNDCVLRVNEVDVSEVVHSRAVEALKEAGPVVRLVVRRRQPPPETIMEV

[7] = target: GORASP1, Q9BQQ3
GORASP1, Q9BQQ3, sequence (Q9BQQ3 1-208): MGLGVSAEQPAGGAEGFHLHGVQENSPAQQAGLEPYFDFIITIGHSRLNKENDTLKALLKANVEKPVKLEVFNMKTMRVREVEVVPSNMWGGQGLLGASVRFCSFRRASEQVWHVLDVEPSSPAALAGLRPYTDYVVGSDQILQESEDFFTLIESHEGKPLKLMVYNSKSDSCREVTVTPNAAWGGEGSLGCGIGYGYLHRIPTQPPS

[8] = target: T4, HTRA3, P83110
T4 sequence (P83110 354-453, limits assumed, looked up): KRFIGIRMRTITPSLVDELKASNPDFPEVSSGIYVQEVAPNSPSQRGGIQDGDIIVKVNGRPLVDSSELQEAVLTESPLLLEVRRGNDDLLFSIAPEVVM

[9] = target: Inadl_2, Q8NI35
Inadl_2, Q8NI35, sequence (Q8NI35 238-335): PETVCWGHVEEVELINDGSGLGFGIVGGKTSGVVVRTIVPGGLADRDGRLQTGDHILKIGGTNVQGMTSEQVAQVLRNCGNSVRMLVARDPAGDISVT

[10] = target: Inadl_9, Q8NI35
Inadl_9, Q8NI35, sequence (Q8NI35 1530-1615): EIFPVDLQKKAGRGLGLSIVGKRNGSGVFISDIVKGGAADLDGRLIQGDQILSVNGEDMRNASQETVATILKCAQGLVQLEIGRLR

[11] = target: LDB3, O75112
LDB3, O75112, sequence (O75112 1-94): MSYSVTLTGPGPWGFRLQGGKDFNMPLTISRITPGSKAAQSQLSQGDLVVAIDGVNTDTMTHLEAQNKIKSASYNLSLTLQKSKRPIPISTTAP

[12] = target: LNX1_2, Q8TBB1
LNX1_2, Q8TBB1, sequence (Q8TBB1 371-470): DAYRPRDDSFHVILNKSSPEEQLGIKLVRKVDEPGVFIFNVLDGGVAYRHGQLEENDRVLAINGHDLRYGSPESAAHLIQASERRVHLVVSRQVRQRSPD

[13] = target: T5, LNX2_2, Q8N448
T5 sequence (Q8N448 334-432, limits assumed, looked up): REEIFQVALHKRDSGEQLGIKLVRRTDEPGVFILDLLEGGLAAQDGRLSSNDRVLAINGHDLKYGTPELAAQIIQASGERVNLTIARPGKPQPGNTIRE

[14] = target: MAGI1_2, Q96QZ7
MAGI1_2, Q96QZ7, sequence (Q96QZ7 456-580): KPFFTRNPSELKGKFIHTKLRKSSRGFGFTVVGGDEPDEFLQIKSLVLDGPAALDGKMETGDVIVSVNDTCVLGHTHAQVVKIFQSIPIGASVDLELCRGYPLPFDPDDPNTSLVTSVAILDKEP

[15] = target: T6, MPDZ_10, O75970
T6 sequence (O75970 1624-1722, limits assumed, looked up): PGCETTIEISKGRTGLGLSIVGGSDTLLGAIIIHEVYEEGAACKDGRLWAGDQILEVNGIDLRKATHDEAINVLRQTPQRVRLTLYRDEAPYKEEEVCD

[16] = target: T7, MPP6, Q9NZW5
T7 sequence (Q9NZW5 125-219, limits assumed, looked up): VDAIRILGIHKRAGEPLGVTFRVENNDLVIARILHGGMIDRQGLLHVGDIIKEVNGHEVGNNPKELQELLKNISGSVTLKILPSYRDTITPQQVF

[17] = target: T8, NHERF3_1, Q5T2W1
T8 sequence (Q5T2W1 4-100, limits assumed, looked up): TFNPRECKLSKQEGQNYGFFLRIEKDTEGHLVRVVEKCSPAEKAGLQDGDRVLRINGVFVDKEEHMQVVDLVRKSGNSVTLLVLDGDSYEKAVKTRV

[18] = target: T9, NHERF3_3, Q5T2W1
T9 sequence (Q5T2W1 238-333, limits assumed, looked up): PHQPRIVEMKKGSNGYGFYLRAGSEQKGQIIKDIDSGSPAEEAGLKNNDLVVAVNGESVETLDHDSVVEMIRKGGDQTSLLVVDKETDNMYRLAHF

[19] = target: NHERF4_1, Q86UT5-2
NHERF4_1, Q86UT5-2, sequence (Q86UT5 other isoform, or with tags, fused parts or gaps): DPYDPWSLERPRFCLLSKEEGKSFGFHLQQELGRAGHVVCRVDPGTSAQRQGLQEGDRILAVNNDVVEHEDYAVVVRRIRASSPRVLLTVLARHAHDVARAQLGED

[20] = target: NOS1, P29475
NOS1, P29475, sequence (P29475 9-101): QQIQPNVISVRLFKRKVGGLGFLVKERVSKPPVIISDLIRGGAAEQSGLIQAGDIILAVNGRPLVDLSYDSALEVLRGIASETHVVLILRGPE

[21] = target: PDLIM1, O00151
PDLIM1, O00151, sequence (O00151 1-87): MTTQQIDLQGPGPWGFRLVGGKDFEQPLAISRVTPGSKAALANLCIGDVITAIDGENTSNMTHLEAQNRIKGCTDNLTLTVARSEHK

[22] = target: PICK1, Q9NRD5
PICK1, Q9NRD5, sequence (Q9NRD5 17-115): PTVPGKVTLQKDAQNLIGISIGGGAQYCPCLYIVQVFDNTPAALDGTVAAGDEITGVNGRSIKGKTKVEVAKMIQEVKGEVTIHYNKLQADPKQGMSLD

[23] = target: T10, RAPGEF6, Q8TEU7
T10 sequence (Q8TEU7 525-625, limits assumed, looked up): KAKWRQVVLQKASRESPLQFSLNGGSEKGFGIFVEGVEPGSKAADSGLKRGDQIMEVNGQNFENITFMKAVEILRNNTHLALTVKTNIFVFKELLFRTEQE

[24] = target: SCRIB_3, Q14160
SCRIB_3, Q14160, sequence (Q14160 999-1103): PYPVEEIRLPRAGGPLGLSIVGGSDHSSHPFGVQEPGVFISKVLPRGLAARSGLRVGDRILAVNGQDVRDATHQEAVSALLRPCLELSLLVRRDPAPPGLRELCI

[25] = target: T11, SNTA1, Q13424
T11 sequence (Q13424 82-180, limits assumed, looked up): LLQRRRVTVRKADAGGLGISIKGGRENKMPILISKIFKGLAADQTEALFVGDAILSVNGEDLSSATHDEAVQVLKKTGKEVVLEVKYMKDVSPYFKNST

[26] = target: T12, TJP3_3, O95049
T12 sequence (O95049 375-456, limits assumed, looked up): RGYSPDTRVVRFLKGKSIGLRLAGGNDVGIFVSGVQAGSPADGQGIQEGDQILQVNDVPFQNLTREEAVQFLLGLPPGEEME

[27] = plain residues with an end cap or a label only (N-terminal biotin on a linker: ado-ado)
[28] = plain residues with an end cap or a label only (N-terminal biotin on a linker: ahx)

AHNAK1, Q09666, sequence (Q09666 4-100): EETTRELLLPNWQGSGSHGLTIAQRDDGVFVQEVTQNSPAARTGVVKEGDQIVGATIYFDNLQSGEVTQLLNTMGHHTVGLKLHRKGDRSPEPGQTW

DGVNEKVSCV [HTR2A, P28223]
pKd [1, 27]: below the threshold
pKd [2, 27]: below the threshold
pKd [3, 27]: 3.88
pKd [4, 27]: 4.82
pKd [5, 27]: below the threshold
pKd [6, 27]: below the threshold
pKd [7, 27]: below the threshold
pKd [8, 27]: 3.94
pKd [9, 27]: below the threshold
pKd [10, 27]: below the threshold
pKd [11, 27]: below the threshold
pKd [12, 27]: below the threshold
pKd [13, 27]: 4.42
pKd [14, 27]: below the threshold
pKd [15, 27]: 4.19
pKd [16, 27]: below the threshold
pKd [17, 27]: below the threshold
pKd [18, 27]: below the threshold
pKd [19, 27]: below the threshold
pKd [20, 27]: 3.69
pKd [21, 27]: below the threshold
pKd [22, 27]: below the threshold
pKd [23, 27]: below the threshold
pKd [24, 27]: 3.97
pKd [25, 27]: 4.66
pKd [26, 27]: below the threshold

EPQYQPGENL [SRC, P12931]
pKd [1, 27]: below the threshold
pKd [2, 27]: below the threshold
pKd [3, 27]: below the threshold
pKd [4, 27]: below the threshold
pKd [5, 27]: below the threshold
pKd [6, 27]: below the threshold
pKd [7, 27]: below the threshold
pKd [8, 27]: below the threshold
pKd [9, 27]: below the threshold
pKd [10, 27]: below the threshold
pKd [11, 27]: below the threshold
pKd [12, 27]: below the threshold
pKd [13, 27]: below the threshold
pKd [14, 27]: below the threshold
pKd [15, 27]: below the threshold
pKd [16, 27]: below the threshold
pKd [17, 27]: 3.82
pKd [18, 27]: below the threshold
pKd [19, 27]: 3.59
pKd [20, 27]: below the threshold
pKd [21, 27]: 3.56
pKd [22, 27]: below the threshold
pKd [23, 27]: below the threshold
pKd [24, 27]: 3.71
pKd [25, 27]: below the threshold
pKd [26, 27]: below the threshold

REEPDHSTEV [CCRL2, O00421]
pKd [1, 27]: below the threshold
pKd [2, 27]: below the threshold
pKd [3, 27]: below the threshold
pKd [4, 27]: 4.77
pKd [5, 27]: below the threshold
pKd [6, 27]: 4.26
pKd [7, 27]: below the threshold
pKd [8, 27]: 3.48
pKd [9, 27]: below the threshold
pKd [10, 27]: 4
pKd [11, 27]: below the threshold
pKd [12, 27]: 3.65
pKd [13, 27]: 4.09
pKd [14, 27]: below the threshold
pKd [15, 27]: 3.7
pKd [16, 27]: below the threshold
pKd [17, 27]: 4.57
pKd [18, 27]: below the threshold
pKd [19, 27]: 3.53
pKd [20, 27]: below the threshold
pKd [21, 27]: 3.53
pKd [22, 27]: below the threshold
pKd [23, 27]: below the threshold
pKd [24, 27]: 4.35
pKd [25, 27]: 4.45
pKd [26, 27]: below the threshold

APSRKLNTEI [TIAM1, Q13009]
pKd [1, 28]: below the threshold
pKd [2, 28]: below the threshold
pKd [3, 28]: below the threshold
pKd [4, 28]: 3.97
pKd [5, 28]: below the threshold
pKd [6, 28]: below the threshold
pKd [7, 28]: below the threshold
pKd [8, 28]: below the threshold
pKd [9, 28]: below the threshold
pKd [10, 28]: below the threshold
pKd [11, 28]: below the threshold
pKd [12, 28]: below the threshold
pKd [13, 28]: below the threshold
pKd [14, 28]: below the threshold
pKd [15, 28]: 3.75
pKd [16, 28]: below the threshold
pKd [17, 28]: below the threshold
pKd [18, 28]: below the threshold
pKd [19, 28]: below the threshold
pKd [20, 28]: below the threshold
pKd [21, 28]: below the threshold
pKd [22, 28]: below the threshold
pKd [23, 28]: below the threshold
pKd [24, 28]: below the threshold
pKd [25, 28]: below the threshold
pKd [26, 28]: below the threshold

QSYPSKHDYV [CLDN18, P56856]
pKd [1, 27]: below the threshold
pKd [2, 27]: 3.57
pKd [3, 27]: below the threshold
pKd [4, 27]: 3.71
pKd [5, 27]: 3.49
pKd [6, 27]: below the threshold
pKd [7, 27]: 3.74
pKd [8, 27]: 4.19
pKd [9, 27]: below the threshold
pKd [10, 27]: 4.12
pKd [11, 27]: below the threshold
pKd [12, 27]: 3.69
pKd [13, 27]: 4.17
pKd [14, 27]: below the threshold
pKd [15, 27]: 3.64
pKd [16, 27]: below the threshold
pKd [17, 27]: 4.26
pKd [18, 27]: below the threshold
pKd [19, 27]: 3.81
pKd [20, 27]: 4.29
pKd [21, 27]: below the threshold
pKd [22, 27]: 4.26
pKd [23, 27]: below the threshold
pKd [24, 27]: below the threshold
pKd [25, 27]: 3.58
pKd [26, 27]: 4.02
